Reference: article PMC3758421

What was measured:
Assay in all cases: Spinach sensor fluorescence
[1] = biological target: streptavidin (UniProt P22629 25-183)
[2] = biological target: thrombin (human, UniProt P00734;P00734 315-363;364-622)
[3] = biological target: MS2 phage coat protein (MCP) (MS2 phage, UniProt P03612 2-130)
Sequence of MS2 phage coat protein (MCP) (P03612 2-130): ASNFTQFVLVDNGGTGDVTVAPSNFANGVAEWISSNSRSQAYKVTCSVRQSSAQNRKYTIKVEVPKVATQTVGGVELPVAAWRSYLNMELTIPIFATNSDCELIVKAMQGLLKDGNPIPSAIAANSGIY

Sequence of streptavidin (P22629 25-183): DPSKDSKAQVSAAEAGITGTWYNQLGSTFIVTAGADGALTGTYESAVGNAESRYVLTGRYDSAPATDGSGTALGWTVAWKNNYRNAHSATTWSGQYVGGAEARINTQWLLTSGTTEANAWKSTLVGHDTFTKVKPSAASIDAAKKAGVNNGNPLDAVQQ

B1: streptavidin sensor (Spinach fusion) (structured_RNA)
RNA: GACGCGACUGAAUGAAAUGGUGAAGGACGGGUCCACGACCGACCAGAAUCAUGCAAGUGCGUAAGAUAGUCGCGGGCCGGGGUUGUUGAGUAGAGUGUGAGCUCCGUAACUAGUCGCGUC
With B1 the binding signal [1] was 10.3 fold fluorescence increase.

B2: thrombin sensor (Spinach fusion) (structured_RNA)
RNA: GACGCGACUGAAUGAAAUGGUGAAGGACGGGUCCAGGAACAAAGCUGAAGUACUUACCUUGUUGAGUAGAGUGUGAGCUCCGUAACUAGUCGCGUC
For B2, the binding signal [2] was 6.9 fold fluorescence increase.

B3: MCP sensor (Spinach fusion with MS2E) (structured_RNA)
RNA: GACGCGACUGAAUGAAAUGGUGAAGGACGGGUCCAAUGAGGAUCACCCAUUUGUUGAGUAGAGUGUGAGCUCCGUAACUAGUCGCGUC
In the case of B3, the binding signal [3] is reported as 41.7 fold fluorescence increase.
